Blank lines part the entries; values can stand above or below the substance they belong to.
Legend:
[1] = target: tissue factor (TF) antigen (UniProt P13726); assay: SPR (ProteOn XPR36), Fab captured on anti-penta-His, TF injected, 1:1 fit; batch C (+)
[2] = target: tissue factor (TF) antigen (UniProt P13726); assay: SPR, against wild-type D3H44 Fab; batch C (+)
[3] = target: tissue factor (TF) antigen (UniProt P13726); assay: SPR (ProteOn), Fab captured on anti-penta-His surface, TF injected, 1:1 fit
[4] = target: tissue factor (TF) antigen (UniProt P13726); assay: SPR (ProteOn), Fab captured on anti-penta-His surface, TF injected; reference wild-type D3H44 Fab
[5] = target: tissue factor (TF) antigen (UniProt P13726); assay: vs wild-type D3H44 Fab (KD 0.157 nM); SPR, Fab captured on anti-penta-His, TF as analyte
[6] = target: tissue factor (TF) antigen (UniProt P13726); assay: SPR, Fab captured on anti-penta-His, TF as analyte, 1:1 fit
[7] = target: tissue factor (TF) antigen (UniProt P13726); assay: SPR, Fab captured on anti-penta-His surface, TF as analyte, 1:1 fit; Fab batch C
[8] = target: tissue factor (TF) antigen (UniProt P13726); assay: SPR, Fab captured on anti-penta-His surface, TF as analyte, 1:1 fit; Fab batch C; against wild-type D3H44 Fab
[9] = target: tissue factor (TF) antigen (UniProt P13726); assay: SPR (ProteOn XPR36), Fab captured on anti-penta His surface, TF injected as analyte, 1:1 model
[10] = target: tissue factor (TF) antigen (UniProt P13726); assay: SPR, same assay; reference wild-type D3H44 Fab

tissue factor (TF) antigen, sequence (P13726 33-251 limits assumed): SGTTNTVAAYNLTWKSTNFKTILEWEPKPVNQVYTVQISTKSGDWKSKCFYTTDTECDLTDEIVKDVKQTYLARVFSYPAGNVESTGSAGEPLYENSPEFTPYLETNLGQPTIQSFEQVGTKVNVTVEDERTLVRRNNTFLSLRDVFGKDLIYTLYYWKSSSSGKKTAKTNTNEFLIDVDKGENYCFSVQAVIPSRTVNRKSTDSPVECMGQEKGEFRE

Kd [1]: 0.16 nM
Change in median values of KD of h1l1 Fab heterodimer compared to wild type (-(log(KD design)-log(KD wt))) [2]: -0.01
Substance: H1L1 Fab heterodimer of LCCA Set # 9779 and 9780 (D3H44 Fab; H1 Q179K, L1 Q124E_S131T_T178Y_T180E)

Kd [3]: 0.16 nM
Change in median values of KD of h1l1 Fab heterodimer compared to wild type (-(log(KD design)-log(KD wt))) [4]: -0.01
Substance: D3H44 H1L1 Fab heterodimer of LCCA Set # 9362 (H1 L124R_D146N_Q179K; L1 V133G_S176D_T178E_T180E)

change in median KD compared to wild type, -(log(KD design)-log(KD wt)) [5]: -0.23
Kd [6]: 0.27 nM
Substance: H1L1 Fab heterodimer of LCCA sets 9667, 9671, 9675, 9679 and 9682 (D3H44 Fab, H1 L143E_K145T_Q179E, L1 Q124R_T178R)

Kd [7]: 0.14 nM
change in median KD compared to wild type, -(log(KD design)-log(KD wt)) [8]: 0.05
Substance: D3H44 H1L1 Fab heterodimer of LCCA Set # 9784 (H1 Q179K; L1 Q124E_T178E)

Kd [1]: 0.13 nM
Change in median values of KD of h1l1 Fab heterodimer compared to wild type (-(log(KD design)-log(KD wt))) [2]: 0.09
Substance: H1L1 Fab heterodimer of LCCA Set # 9845 and 9846 (D3H44 Fab; H1 S186K, L1 Q124E_S131T_T178Y_T180E)

Kd [7]: 0.14 nM
change in median KD compared to wild type, -(log(KD design)-log(KD wt)) [8]: 0.04
Substance: D3H44 H1L1 Fab heterodimer of LCCA Set # 9809 (H1 Q179R; L1 Q124E_T178E)

Kd [3]: 0.17 nM
Change in median values of KD of h1l1 Fab heterodimer compared to wild type (-(log(KD design)-log(KD wt))) [4]: -0.04
Substance: D3H44 H1L1 Fab heterodimer of LCCA Set # 9538 (H1 L124R_S186R; L1 V133G_S176D_T178D_T180E)

Kd [1]: 0.11 nM
Change in median values of KD of h1l1 Fab heterodimer compared to wild type (-(log(KD design)-log(KD wt))) [2]: 0.14
Substance: H1L1 Fab heterodimer of LCCA Set # 9803 and 9804 (D3H44 Fab; H1 Q179R, L1 Q124E_S131T_T178F_T180E)

Kd [9]: 0.17 nM
change in median KD of H1L1 Fab heterodimer compared to wild type (-(log(KD design)-log(KD wt))) [10]: -0.04
Substance: H1L1 Fab heterodimer of LCCA set 9354 (D3H44 Fab, H1 L124R_D146N_Q179K, L1 V133G_Q160E_S176D_T180E)

Kd [7]: 0.07 nM
change in median KD compared to wild type, -(log(KD design)-log(KD wt)) [8]: 0.36
Substance: D3H44 H1L1 Fab heterodimer of LCCA Set # 9901 (H1 S186R; L1 Q124E_T180E)

Kd [7]: 0.13 nM
change in median KD compared to wild type, -(log(KD design)-log(KD wt)) [8]: 0.09
Substance: D3H44 H1L1 Fab heterodimer of LCCA Set # 9644 (H1 L143E_K145T_Q179D_S188L; L1 Q124R_Q160K_T178R)

Kd [3]: 0.22 nM
Change in median values of KD of h1l1 Fab heterodimer compared to wild type (-(log(KD design)-log(KD wt))) [4]: -0.15
Substance: D3H44 H1L1 Fab heterodimer of LCCA Sets # 9237, 9236, 9234, 9239, 9243 and 9240 (H1 L124E_L143D_K145T; L1 V133G_S176R_T178K)

Kd [1]: 0.15 nM
Change in median values of KD of h1l1 Fab heterodimer compared to wild type (-(log(KD design)-log(KD wt))) [2]: 0.01
Substance: H1L1 Fab heterodimer of LCCA Set # 9914 (D3H44 Fab; H1 S188L_V190F, L1 WT)

Kd [9]: 0.18 nM
change in median KD of H1L1 Fab heterodimer compared to wild type (-(log(KD design)-log(KD wt))) [10]: -0.07
Substance: H1L1 Fab heterodimer of LCCA set 9358 (D3H44 Fab, H1 L124R_D146N_Q179K, L1 V133G_S176D_T178E)

Kd [9]: 0.2 nM
change in median KD of H1L1 Fab heterodimer compared to wild type (-(log(KD design)-log(KD wt))) [10]: -0.1
Substance: H1L1 Fab heterodimer of LCCA set 9351 (D3H44 Fab, H1 L124R_D146N_Q179K, L1 Q124E_V133G_S176D_T178E_T180E)

Kd [1]: 0.17 nM
Change in median values of KD of h1l1 Fab heterodimer compared to wild type (-(log(KD design)-log(KD wt))) [2]: -0.03
Substance: H1L1 Fab heterodimer of LCCA Set # 9843 and 9844 (D3H44 Fab; H1 S186K, L1 Q124E_S131T_T178F_T180E)

Kd [9]: 0.16 nM
change in median KD of H1L1 Fab heterodimer compared to wild type (-(log(KD design)-log(KD wt))) [10]: -0.01
Substance: H1L1 Fab heterodimer of LCCA set 9359 (D3H44 Fab, H1 L124R_D146N_Q179K, L1 V133G_S176D_T178E_T180E)

Kd [7]: 0.13 nM
change in median KD compared to wild type, -(log(KD design)-log(KD wt)) [8]: 0.09
Substance: D3H44 H1L1 Fab heterodimer of LCCA Set # 9831 (H1 S186K; L1 Q124E_Q160E_T180E)

Kd [3]: 0.26 nM
Change in median values of KD of h1l1 Fab heterodimer compared to wild type (-(log(KD design)-log(KD wt))) [4]: -0.21
Substance: D3H44 H1L1 Fab heterodimer of LCCA Sets # 9505 and 9503 (H1 L124R_S186R; L1 Q124E_V133G_S176D_T178D_T180E)

change in median KD compared to wild type, -(log(KD design)-log(KD wt)) [5]: -0.26
Kd [6]: 0.28 nM
Substance: H1L1 Fab heterodimer of LCCA sets 9755 and 9756 (D3H44 Fab, H1 Q179K, L1 Q124E_L135W_Q160E_T180E)
